The target of assay [1] is His-Sumo BRD4 (1-477aa) wild type, not methylated (UniProt O60885 1-477). The experiment in a line: ELISA. For orientation: In an ELISA, binding on a coated surface is turned into a signal by an enzyme label.
Assay [2] has as its target recombinant His BRD4 (1-477aa) (UniProt O60885 1-477). The assay is described as follows: ELISA.

These results are taken from PMC8153730 (Science Advances, 2021).

B1: His E2F1 (natural protein)
chain: not shown
Take B1: in assay [1], the binding result is “binds”.

B2: recombinant glutathione S-transferase (GST) SETD6 (enzyme)
chain: MATQAKRPRVAGPVDGGDLDPVACFLSWCRRVGLELSPKVSERAGGRRTRGGARAALTSPPAQVAVSRQGTVAGYGMVARESVQAGELLFVVPRAALLSQHTCSIGGLLERERVALQSQSGWVPLLLALLHELQAPASRWRPYFALWPELGRLEHPMFWPEEERRCLLQGTGVPEAVEKDLANIRSEYQSIVLPFMEAHPDLFSLRVRSLELYHQLVALVMAYSFQEPLEEEEDEKEPNSPVMVPAADILNHLANHNANLEYSANCLRMVATQPIPKGHEIFNTYGQMANWQLIHMYGFVEPYPDNTDDTADIQMVTVREAALQGTKTEAERHLVYERWDFLCKLEMVGEEGAFVIGREEVLTEEELTTTLKVLCMPAEEFRELKDQDGGGDDKREEGSLTITNIPKLKASWRQLLQNSVLLTLQTYATDLKTDQGLLSNKEVYAKLSWREQQALQVRYGQKMILHQLLELTS
For the molecule B2, the binding result in assay [2] is “binds”.
